Source: US20250206828A1, “ANTI-ADENOSINE RECEPTOR (A2aR) ANTIBODIES AND THE USE THEREOF” (Adept Therapeutics Inc., priority 2022, published 2025)
Positions count from the first letter of the chain named. Names and notes keep the numbering of the source. Read-outs that look alike come from different tables or passages of the source. One block for each molecule: values may come before it.

Tests used:
[1] = target: T1, human adenosine A2A receptor (A2aR) (human, UniProt P29274 1-412); assay: flow cytometry, HEK293-hA2aR cells, supernatant 1 ug/ml
T1 construct: Assays used HEK293 cells stably overexpressing human A2aR (BPS Bioscience 79381), human A2aR-expressing CHO cells, or endogenous A2aR on human PBMC; also called human A2aR; hA2aR
T1 sequence (P29274 whole entry): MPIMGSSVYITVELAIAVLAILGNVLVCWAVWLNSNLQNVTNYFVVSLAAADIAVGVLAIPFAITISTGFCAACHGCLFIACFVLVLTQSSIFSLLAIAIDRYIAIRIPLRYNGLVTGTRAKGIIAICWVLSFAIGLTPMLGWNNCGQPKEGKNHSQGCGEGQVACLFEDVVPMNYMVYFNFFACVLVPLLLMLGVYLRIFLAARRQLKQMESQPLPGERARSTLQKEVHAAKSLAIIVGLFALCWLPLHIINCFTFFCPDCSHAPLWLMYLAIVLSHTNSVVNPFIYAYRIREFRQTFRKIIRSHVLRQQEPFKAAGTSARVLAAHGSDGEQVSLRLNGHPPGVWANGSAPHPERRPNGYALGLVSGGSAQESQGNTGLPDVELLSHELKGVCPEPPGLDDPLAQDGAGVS

[2] = target: T1, human adenosine A2A receptor (A2aR); assay: flow cytometry titration, HEK293-hA2aR cells, purified antibody
[3] = target: T1, human adenosine A2A receptor (A2aR); assay: flow cytometry, HEK293-hA2aR cells, supernatant 1 ug/ml; remark: listed apart in the source
[4] = target: T1, human adenosine A2A receptor (A2aR); assay: as above; remark: listed apart in the source
[5] = target: human A2aR (Homo sapiens, UniProt P29274); assay: Binding of humanized anti-A2aR antibodies in transfected Expi293F cell supernatant to human A2aR on HEK293 cells (FACS, MFI); conditions: for binding to human A2aR on cell surface, mean fluorescence intensity (MFI): supernatant normalized to 1 μg/ml antibody, HEK293 cells stably overexpressing human A2aR, greater MFI = stronger binding, parental value average of triplicate
Chain of human A2aR (P29274 whole entry): as above
Procedure: Briefly, HEK293 cells that stably overexpress human A2aR (HEK-hA2aR OCL, BPS Bioscience, Cat. 79381) were collected from fresh culture. Cells were then resuspended in FACS buffer (1×DPBS/1% FBS) at 10^6/ml concentration. One hundred microliters (100 μl) of cells were aliquoted into each well of a 96 well plates. After centrifugation, cell pellets in each well were then resuspended with 100 μl normalized supernatant samples containing 1 μg/ml humanized anti-A2aR monoclonal antibody variants collected from transfected Expi293 cell culture. The supernatants were mixed with the cells and incubated on ice for 1 hours. After washing the mixtures of the supernatants containing expressed antibodies and the A2aR-expressing cells with FACS buffer, one hundred microliters (100 μl) of 1:400 diluted PE-conjugated anti-human Fc secondary antibody (Jackson Immuno Research, Cat. 109-116-098) was added to each well followed by an incubation for 30 minutes on ice. After washes with FACS buffer, stained cells were resuspended in 150 μl of 7-AAD (Biolegend, Cat. 420404) diluted 1:100 in 1×DPBS buffer and incubate for 5 minutes in the dark at room temperature before FACS analysis. The mean fluorescence intensity (MFI) was obtained using Guava 11HT or 5HT (Luminex). Data was analyzed using Flowjo software.
As shown in Tables 22-24, exemplary humanized anti-A2aR antibodies bind to A2aR expressed on a cell surface. A greater MFI value means stronger binding of the exemplary antibody to A2aR expressed on a cell surface.

B1: Hu3F6-H2/Hu3F6-L8 (antibody, human IgG1, V domains shown)
VH: EVQLVQSGAEVKKPGASVKVSCKTSGFAFTSYWMNWVRQAPGQGLEWMGRIDPSDSEAHYHHKFWGRVTMTVDTSTSTVYMELSSLRSEDTAVYYCLRSLYGKGDYWGHGTTVTVSS
VL: DVVMTQSPLSLPVTPGEPASISCRSSQSLVHRNGNTYLEWYLQKPGQSPQLLIYKVSNRFSGVPDRFSGSGSGTDFTLKISRVEAEDVGVYYCYQGSHVPLTFGGGTKVEIK
notes: Human IgG1 FES (L234F, L235E, P331S) and human Ig kappa constant domains; also called Hu3F6 VH2/VL8
MFI [1]: 1710 MFI | EC50 [2]: 0.76 nM

B2: Hu3F6-H3/Hu3F6-L8 (antibody, human IgG1, V domains shown)
VH: B1 VH with M48I, V68A, M70L, T76S
VL: B1 VL
notes: Human IgG1 FES (L234F, L235E, P331S) and human Ig kappa constant domains; also called Hu3F6 VH3/VL8
MFI [1]: 1830 MFI | EC50 [2]: 0.76 nM

B11: Hu3F6-H2/Hu3F6-L3 (antibody, human IgG1, V domains shown)
VH: B1 VH
VL: B1 VL with P15L, E17Q, L42Q, K44R, Q50R
notes: Human IgG1 FES (L234F, L235E, P331S) and human Ig kappa constant domains; also called Hu3F6 VH2/VL3
MFI [1]: 1830 MFI | EC50 [2]: 0.65 nM

B12: Hu3F6-H2/Hu3F6-L4 (antibody, human IgG1, V domains shown)
VH: B1 VH
VL: B1 VL with V2I, S7T, P12S, E17Q
notes: Human IgG1 FES (L234F, L235E, P331S) and human Ig kappa constant domains; also called Hu3F6 VH2/VL4
MFI [1]: 1590 MFI | EC50 [2]: 0.68 nM

B13: Hu3F6-H2/Hu3F6-L5 (antibody, human IgG1, V domains shown)
VH: B1 VH
VL: B1 VL with S7T, P12S, E17Q
notes: Human IgG1 FES (L234F, L235E, P331S) and human Ig kappa constant domains; also called Hu3F6 VH2/VL5
MFI [1]: 1790 MFI | EC50 [2]: 0.53 nM

B14: Hu1B5-H6/Hu1B5-L4 (antibody, human IgG1, V domains shown)
VH: EVQLVQSGAEVKKPGESLRISCKTSGFTFTRFWMNWVRQMPGKGLEWIGRIDPYDSETQYNHKFWDHATLSVDKSSSTVYLQWSSLKASDTAMYYCGRSLYGKGDYWGQGTTVTVSS
VL: B1 VL with L29I, R32S, Y94F
notes: Human IgG1 FES (L234F, L235E, P331S) and human Ig kappa constant domains
MFI [4]: 1910 MFI

B15: Hu1B5-H6/Hu1B5-L5 (antibody, human IgG1, V domains shown)
VH: B14 VH
VL: DIVMTQSPDSLAVSLGERATINCRSSQSIVHSNGNTYLEWYQQKPGQPPKLLIYKVSNRFSGVPDRFSGSGSGTDFTLTISSLQAEDVAVYYCFQGSHVPLTFGGGTKVEIK
notes: as for B14
MFI [4]: 702 MFI

B16: Hu1B5-H2/Hu1B5-L2 (antibody, human IgG1, V domains shown)
VH: B1 VH with A28T, S31R, Y32F, S54Y, A58T, H59Q, H61N, G66D, L97G, H109Q
VL: B1 VL with P15L, E17Q, L29I, R32S, L42Q, K44R, Q50R, L51R, Y94F
notes: as for B14
MFI [4]: 243 MFI

B17: Hu1B5-H2/Hu1B5-L3 (antibody, human IgG1, V domains shown)
VH: B1 VH with A28T, S31R, Y32F, S54Y, A58T, H59Q, H61N, G66D, L97G, H109Q
VL: B1 VL with P15L, E17Q, L29I, R32S, L42Q, K44R, Q50R, Y94F
notes: as for B14
MFI [4]: 1870 MFI

B18: Hu1B5-H3/Hu1B5-L1: humanized anti-A2aR IgG1 FES antibody; HCVR SEQ ID NO:54, LCVR SEQ ID NO:71 (antibody, V domains shown)
VH: EVQLVQSGAEVKKPGASVKVSCKTSGFTFTRFWMNWVRQAPGQGLEWIGRIDPYDSETQYNHKFWDRATLTVDTSSSTVYMELSSLRSEDTAVYYCGRSLYGKGDYWGQGTTVTVSS
VL: B1 VL with P15L, E17Q, L29I, R32S, Y41F, L42Q, K44R, Q50R, L51R, Y94F
modifications: IgG1 FES constant regions
binding to human A2aR on cell surface, mean fluorescence intensity (MFI) [5]: 152

B19: Hu1B5-H4/Hu1B5-L1: humanized anti-A2aR IgG1 FES antibody; HCVR SEQ ID NO:55, LCVR SEQ ID NO:71 (antibody, V domains shown)
VH: B18 VH with T74K
VL: B1 VL with P15L, E17Q, L29I, R32S, Y41F, L42Q, K44R, Q50R, L51R, Y94F
modifications: IgG1 FES constant regions
binding to human A2aR on cell surface, mean fluorescence intensity (MFI) [5]: 182

B20: Hu1B5-H5/Hu1B5-L1: humanized anti-A2aR IgG1 FES antibody; HCVR SEQ ID NO:56, LCVR SEQ ID NO:71 (antibody, V domains shown)
VH: B18 VH with N61A, T74K
VL: B1 VL with P15L, E17Q, L29I, R32S, Y41F, L42Q, K44R, Q50R, L51R, Y94F
modifications: IgG1 FES constant regions
binding to human A2aR on cell surface, mean fluorescence intensity (MFI) [5]: 82

B21: Hu1B5-H6/Hu1B5-L1: humanized anti-A2aR IgG1 FES antibody; HCVR SEQ ID NO:57, LCVR SEQ ID NO:71 (antibody, V domains shown)
VH: B14 VH
VL: B1 VL with P15L, E17Q, L29I, R32S, Y41F, L42Q, K44R, Q50R, L51R, Y94F
modifications: IgG1 FES constant regions
binding to human A2aR on cell surface, mean fluorescence intensity (MFI) [5]: 178

B22: Hu1B5-H1/Hu1B5-L2: humanized anti-A2aR IgG1 FES antibody; HCVR SEQ ID NO:51, LCVR SEQ ID NO:72 (antibody, V domains shown)
VH: B18 VH with E1Q, T24A, I48M, A68V, L70M, V72R, S76T
VL: B1 VL with P15L, E17Q, L29I, R32S, L42Q, K44R, Q50R, L51R, Y94F
binding to human A2aR on cell surface, mean fluorescence intensity (MFI) [5]: 62

B23: Hu1B5-H2/Hu1B5-L1: humanized anti-A2aR IgG1 FES antibody; HCVR SEQ ID NO:52, LCVR SEQ ID NO:71 (antibody, V domains shown)
VH: B18 VH with I48M, A68V, L70M, S76T
VL: B1 VL with P15L, E17Q, L29I, R32S, Y41F, L42Q, K44R, Q50R, L51R, Y94F
modifications: IgG1 FES constant regions
binding to human A2aR on cell surface, mean fluorescence intensity (MFI) [5]: 165

B24: Hu1B5-H2.1/Hu1B5-L1: humanized anti-A2aR IgG1 FES antibody; HCVR SEQ ID NO:53, LCVR SEQ ID NO:71 (antibody, V domains shown)
VH: B18 VH with A68V, L70M, S76T
VL: B1 VL with P15L, E17Q, L29I, R32S, Y41F, L42Q, K44R, Q50R, L51R, Y94F
binding to human A2aR on cell surface, mean fluorescence intensity (MFI) [5]: 145

Second part, the molecule after the results:

MFI [3]: 9 MFI
B3: Hu3F8-H1/Hu3F8-L1 (antibody, human IgG1, V domains shown)
VH: B1 VH with E1Q, T24A, A28T, S31R, A58T, H61N, V72R, H109Q
VL: B1 VL with P15L, E17Q, L29I, R32S, Y41F, L42Q, K44R, Q50R, L51R
notes: as for B14

MFI [3]: 10 MFI
B4: Hu3F8-H1/Hu3F8-L2 (antibody, human IgG1, V domains shown)
VH: B1 VH with E1Q, T24A, A28T, S31R, A58T, H61N, V72R, H109Q
VL: B1 VL with P15L, E17Q, L29I, R32S, L42Q, K44R, Q50R, L51R
notes: as for B14

MFI [3]: 1750 MFI
B5: Hu3F8-H1/Hu3F8-L4 (antibody, human IgG1, V domains shown)
VH: B1 VH with E1Q, T24A, A28T, S31R, A58T, H61N, V72R, H109Q
VL: B1 VL with V2I, L29I, R32S
notes: as for B14

MFI [3]: 16 MFI
B6: Hu3F8-H2/Hu3F8-L1 (antibody, human IgG1, V domains shown)
VH: B1 VH with T24A, A28T, S31R, A58T, H61N, H109Q
VL: B1 VL with P15L, E17Q, L29I, R32S, Y41F, L42Q, K44R, Q50R, L51R
notes: as for B14

MFI [3]: 1780 MFI
B7: Hu3F8-H2/Hu3F8-L4 (antibody, human IgG1, V domains shown)
VH: B1 VH with T24A, A28T, S31R, A58T, H61N, H109Q
VL: B1 VL with V2I, L29I, R32S
notes: as for B14

EC50 [2]: 0.62 nM
B8: Hu3F8-H5.1/Hu3F8-L3 (antibody, human IgG1, V domains shown)
VH: B18 VH with T24A, F32Y, Y54S, Q59H, N61A, D66G, T74K, S76T, G97L
VL: B1 VL with P15L, E17Q, L29I, R32S, L42Q, K44R, Q50R
notes: Human IgG1 FES (L234F, L235E, P331S) and human Ig kappa constant domains; also called Hu3F8 VH5.1/VL3

EC50 [2]: 0.69 nM
B9: Hu3F8-H5.1/Hu3F8-L5 (antibody, human IgG1, V domains shown)
VH: B18 VH with T24A, F32Y, Y54S, Q59H, N61A, D66G, T74K, S76T, G97L
VL: B1 VL with L29I, R32S
notes: Human IgG1 FES (L234F, L235E, P331S) and human Ig kappa constant domains; also called Hu3F8 VH5.1/VL5

MFI [3]: 285 MFI
B10: Hu3F8-H6/Hu3F8-L2 (antibody, human IgG1, V domains shown)
VH: B14 VH with T24A, F32Y, Y54S, Q59H, D66G, G97L
VL: B1 VL with P15L, E17Q, L29I, R32S, L42Q, K44R, Q50R, L51R
notes: as for B14

MFI, binding to human A2aR on cell surface (3F6-9G5 derived) ([5]; supernatant with 1 μg/ml antibody, HEK293 overexpressing human A2aR, heavy chain (row) x light chain): 21
B25: Hu3F6-H4/Hu3F6-L1: humanized anti-A2aR IgG1 FES antibody; HCVR SEQ ID NO:61, LCVR SEQ ID NO:76 (antibody, V domains shown)
VH: B1 VH with M48I, V68A, M70L, T74K, T76S
VL: B1 VL with P15L, E17Q, Y41F, L42Q, K44R, Q50R, L51R
